{"source": "paper PMC8294337", "about": "(BBA advances, 2021)", "target": "the molecule itself", "assay": "SDS-PAGE", "data": [{"protein": "T74S KcsA (pH-gated potassium channel KcsA with the mutation T74S) (natural protein, UniProt P0A334 1-160, looked up) MPPMLSGLLARLVKLLLGRHGSALHWRAAGAATVLLVIVLLAGSYLAVLAERGAPGAQLITYPRALWWSVETASTVGYGDLYPVTLWGRLVAVVVMVAGITSFGLVTAALATWFVGREQERRGHFVRHSEKAAEEAYTRTTRALHERFDRLERMLDDNRR", "values": [{"measurement": "stoichiometry N", "value": 4}]}]}
